What all share (conditions): 2 nM 32P-labelled DNA; binding buffer, salt, pH and temperature only by reference (refs 50, 51); native 6% polyacrylamide gel for EMSA
A general note: In EMSA bound probe runs differently from free probe, usually more slowly.

The target of data set [1] is T1, PclR-His (Streptococcus pneumoniae R6) (UniProt Q8DP24).
T1 sequence: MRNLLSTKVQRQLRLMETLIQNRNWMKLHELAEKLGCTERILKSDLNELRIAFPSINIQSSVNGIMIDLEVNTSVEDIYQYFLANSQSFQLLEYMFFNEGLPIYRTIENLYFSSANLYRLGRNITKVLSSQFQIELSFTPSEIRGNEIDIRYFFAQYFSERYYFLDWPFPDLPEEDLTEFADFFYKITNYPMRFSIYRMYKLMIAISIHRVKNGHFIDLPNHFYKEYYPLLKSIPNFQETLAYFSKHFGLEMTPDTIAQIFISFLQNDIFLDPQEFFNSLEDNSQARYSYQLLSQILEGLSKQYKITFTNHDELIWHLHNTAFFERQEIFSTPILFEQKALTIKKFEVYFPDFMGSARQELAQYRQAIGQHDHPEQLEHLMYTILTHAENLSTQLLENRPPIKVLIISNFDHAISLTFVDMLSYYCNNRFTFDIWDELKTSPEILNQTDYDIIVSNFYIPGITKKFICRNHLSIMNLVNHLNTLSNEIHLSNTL
As to the kind of experiment: DNase I footprinting.

Data set [2] deals with T2, MgaSpn-His (Streptococcus pneumoniae R6) (UniProt Q8DNN5).
T2 sequence: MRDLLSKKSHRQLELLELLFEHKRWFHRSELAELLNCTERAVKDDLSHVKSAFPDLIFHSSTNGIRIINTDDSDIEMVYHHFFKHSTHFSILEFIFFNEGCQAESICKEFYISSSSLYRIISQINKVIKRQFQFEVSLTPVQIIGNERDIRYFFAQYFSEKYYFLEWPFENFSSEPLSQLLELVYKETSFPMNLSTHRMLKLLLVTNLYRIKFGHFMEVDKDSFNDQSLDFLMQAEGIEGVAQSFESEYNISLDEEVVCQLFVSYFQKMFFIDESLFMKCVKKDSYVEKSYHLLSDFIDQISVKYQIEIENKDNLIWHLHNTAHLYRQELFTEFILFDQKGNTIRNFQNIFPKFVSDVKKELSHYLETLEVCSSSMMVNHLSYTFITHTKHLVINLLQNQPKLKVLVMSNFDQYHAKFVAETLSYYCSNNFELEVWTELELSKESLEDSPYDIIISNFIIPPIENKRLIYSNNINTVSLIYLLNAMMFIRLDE
Description: DNase I footprinting.

For data set [3], the target named is T2, MgaSpn-His (Streptococcus pneumoniae R6). Description: EMSA.
The target in data set [4] is T1, PclR-His (Streptococcus pneumoniae R6). As to the kind of experiment: EMSA.

“CAAATTCTTTAATTGTTGCTATTATATAATTTTTAAAATTAAAAATATAATCTTTAGACTTGAATTTGATTCTGTATTCACGCCCTCAATAGACGGTAAAATAAGAAAATTGTTTATATATTGTCTCCGTAGTGTTATTATACGAAATAAAAGATTTTAGGAAAAGTCGTTATATCATGCTATACCTATTCTTTGTGGTATAATTGCAAGAGGTTTAATCCG (double strand) [222-bp P1623B promoter fragment]”: in data set [1], the binding entry is “no binding”.
Take “CTCCTAGATAGTATTTTATAGTTTACAATGTACAACTATTTGAGGCATTAATCAATATTTTCTGAACAATTAATATATTCTGTTTTTGCACTTAAAAGCCACTTATATTATTCTAATTTTTCCGATTACTAACGACAATTTTCTTGCTCTAATTTTTTTATACTACTTAGACAAAAAAAGATATAATGAATTATGGAGGAAATACCCGTATGAGAAACCTTTTATCCACAAAAGTTCAAAGACAATTACGCTTAATGGAAACCCTAATTC (double strand) [270-bp PpclA promoter fragment]”: the binding result in data set [2], in data set [1], in data set [3] and in data set [4] was “binds” each time.
Take “CGGCTAGTTCATGTAATTTCATCCAATTACGATTCTGAATTAGGGTTTCCATTAAGCGTAATTGTCTTTGAACTTTTGTGGATAAAAGGTTTCTCATACGGGTATTTCCTCCATAATTCATTATATCTTTTTTTGTCTAAGTAGTATAAAAAAATTAGAGCAAGAAAATTGTCGTTAGTAATCGGAAAAATTAGAATAATATAAGTGGCTTTTAAGTGCAAAAACAGAATATATTAATTGTTCAGAAAATATTGATTAATGCCTCAAATAGTTGTACATTG (double strand) [281-bp PpclA promoter fragment]”: the binding entry in data set [2] and in data set [1] was “binds” in each case.

Source of the values: paper PMC9276737.
